PMC4764579 (2016)

Molecular target: TRPV1 (Rattus norvegicus, UniProt O35433)
Test: electrophysiology, Hill fit

Sequence of TRPV1 (O35433 whole entry): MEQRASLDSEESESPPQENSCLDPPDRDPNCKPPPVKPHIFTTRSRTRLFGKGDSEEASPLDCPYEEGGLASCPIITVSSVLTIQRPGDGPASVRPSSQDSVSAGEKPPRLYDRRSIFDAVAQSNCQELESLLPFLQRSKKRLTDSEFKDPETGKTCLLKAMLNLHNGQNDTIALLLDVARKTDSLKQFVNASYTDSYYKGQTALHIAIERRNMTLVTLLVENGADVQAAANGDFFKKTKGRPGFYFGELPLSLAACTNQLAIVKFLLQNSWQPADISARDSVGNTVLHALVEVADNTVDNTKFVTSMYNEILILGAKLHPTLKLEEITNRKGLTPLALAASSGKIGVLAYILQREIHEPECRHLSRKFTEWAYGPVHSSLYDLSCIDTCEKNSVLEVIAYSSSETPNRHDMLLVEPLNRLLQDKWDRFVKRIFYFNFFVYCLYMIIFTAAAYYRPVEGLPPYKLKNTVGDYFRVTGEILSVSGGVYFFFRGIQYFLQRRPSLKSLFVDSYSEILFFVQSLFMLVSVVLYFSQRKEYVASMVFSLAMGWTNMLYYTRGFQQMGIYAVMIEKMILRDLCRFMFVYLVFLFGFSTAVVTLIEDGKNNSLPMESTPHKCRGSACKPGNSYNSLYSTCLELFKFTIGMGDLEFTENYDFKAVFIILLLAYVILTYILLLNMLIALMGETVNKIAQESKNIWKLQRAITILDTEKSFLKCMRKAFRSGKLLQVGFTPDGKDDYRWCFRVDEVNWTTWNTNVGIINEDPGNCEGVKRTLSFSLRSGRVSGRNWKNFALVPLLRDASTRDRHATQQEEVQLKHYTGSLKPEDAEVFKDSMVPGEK

B1: double-knot toxin (DkTx) K2 knot (peptide)
chain: TNCAKEGEVCGWGSKCCHGLDCPLAFIPYC
  Kd: 8.5 µM
